According to paper PMC11240982 (2024):

B1: SHIV_(1157ipd3N4) V3 peptide (305KSISIGPGQAI317) (peptide)
peptide: KSISIGPGQAI

Assays:
Assay in all cases: BLI
[1] = biological target: B1
J038 = biological target: J038
447-52D = biological target: 447-52D

Binder	Kd [1] [nM]	Kd (J038) [nM]	Kd (447-52D) [nM]
JT18 (antibody, V domains shown) VH: EVQLVQSGAEVKRPGESLRISCKTSGYDFTDYWINWVRQMPGKGLEWVGMVYPSDSETAYSPSFRGRVTISADTSISTSYLQWTSLEASDTATYYCARPVSGTFALDVWGRGVLVAVSS VL: QSVLTQPPSMSGAPGQRVTMSCTGGNSNIGANLYVQWYQQVPGTAPRLLIYEDNQRPSGVSDRFSGSRSGSSASLTITGLQSEDEADYYCQSYDNSLSTVLFGGGTRLTVL	55.3		
B1		1650	55.6
